Experimental data published in PMC4519933, “Crystal Structure of a Hidden Protein, YcaC, a Putative Cysteine Hydrolase from Pseudomonas aeruginosa, with and without an Acrylamide Adduct” (International Journal of Molecular Sciences, 2015).

B1: Pseudomonas aeruginosa YcaC, crystal form I (Cys118 linked to propanamide) (enzyme, P. aeruginosa (endogenous in PADD1976), UniProt Q9I4D6 2-205, looked up)
chain: SFTYKRLDKNDAAVLFVDHQAGLLSLVRDFSPDEFKNNVLALADIARFFNLPTILTTSFEDGPNGPLVPELKEMFPQAPYIARPGNINAWDNEDFVKAVKATGKKQLIIAGVVTDVCVAFPTLSALEEGFDVFVVTDASGTFNPVVRDAAWARMTAAGAQLMNWFSVGCELHRDWRNDIEGFGAILGGHLPAYANLIQSFGTKK
modifications: Cys118 linked to a propanamide (acrylamide adduct); bacteria grown in minimal media with L-selenomethionine (SeMet)
notes: monomer 205 residues, 22.5 kDa; the N-formylmethionine appears to have been cleaved off; residues 204 and 205 disordered in the crystal; Not cloned: crystallised as a contaminant of a SeMet PlcHR2 preparation; identity found by molecular replacement and side chain densities; also called Pa YcaC; PA1202
B2: Pseudomonas aeruginosa YcaC, crystal form II (Cys118 as S-mercaptocysteine) (enzyme, P. aeruginosa (endogenous in PADD1976), UniProt Q9I4D6 2-205, looked up)
chain: B1 chain
modifications: Cys118 covalently modified to S-mercaptocysteine; bacteria grown in minimal media with L-selenomethionine (SeMet)
notes: monomer 205 residues, 22.5 kDa; the N-formylmethionine appears to have been cleaved off; residues 204 and 205 disordered in the crystal; Same protein and preparation route as m1; differs in the modification of Cys118 seen in the crystal; also called Pa YcaC; PA1202

Tests used:
[1] = biological target: the molecule itself; assay: crystal structure; crystal form I, space group C2, 2.34 Å; 9 mg/mL SeMet PlcHR2 preparation in 50 mM NaCl, 50 mM Tris-HCl pH 7.4, 0.1 mM TCEP; reservoir 26% PEG 3350, 400 mM (NH4)2SO4, 70 mM bis-Tris-HCl pH 6.75, 2,5-hexanediol additive; eight chains in the asymmetric unit
[2] = biological target: the molecule itself; assay: crystal structure; crystal form II, space group P21, 2.56 Å; 5.3 mg/mL SeMet PlcHR2 preparation in 50 mM NaCl, 5 mM MgCl2, 50 mM Tris-HCl pH 7.4, 0.1 mM TCEP; reservoir 20% PEG 3350, 200 mM Na malonate, 100 mM MES-NaOH pH 6.75; eight chains in the asymmetric unit

| Protein | stoichiometry N [1] | stoichiometry N [2] |
| --- | --- | --- |
| B1 | 8 |  |
| B2 |  | 8 |
